Experimental data reported in CN112457402A (BEIJING NIUAMBO BIOTECHNOLOGY CO LTD, dated 2021).

T1: Human CEACAM6 Protein, Human, Recombinant (His Tag) (human, UniProt P40199 35-320, biotinylated in Example 6 (Bio-CEACAM6), site not stated)
T1 construct: Bought recombinant antigen; also called CEACAM6抗原; 人CEACAM6抗原
T1 sequence (looked up): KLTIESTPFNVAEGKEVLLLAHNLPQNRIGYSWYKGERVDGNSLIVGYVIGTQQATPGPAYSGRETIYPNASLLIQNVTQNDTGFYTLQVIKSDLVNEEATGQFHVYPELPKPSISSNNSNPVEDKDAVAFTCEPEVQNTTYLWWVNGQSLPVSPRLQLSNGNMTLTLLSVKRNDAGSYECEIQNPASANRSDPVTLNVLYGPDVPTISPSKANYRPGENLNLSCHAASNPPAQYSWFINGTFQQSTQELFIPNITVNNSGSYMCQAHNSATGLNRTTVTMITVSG

B1: 单域抗体NBC4 (VHH)
VHH: HVQLVESGGGLVQAGGSLRLSCAVSGSIFSNDVMGWYRQAPGKQRELVAFITNGGVAHSKDPEKGRFTISRDNGKNTVYLQMNSLKPDDTAVYYCNVRSLVERSREYWGQGTQVTVSS
B2: 单域抗体NBC6 (VHH)
VHH: QVKLEESGGGLVQAGGSLRLSCAVSGSIFSNDVMGWYRQAPGKQRELVAFITNEGVAHSKDPVKGRFTISRDNGKNTVYLQMNSLKPDDTAVYYCNVRSLVERSREYWGQGTQVTVSS
B3: 单域抗体NBC5 (VHH)
VHH: QVKLEESGGGLVQAGGSLRLSCAASGDIDRNDVMHWYRQAPGKQRELVAWIANNGATNYADSVKGRFTISRDNAKNTVYLQMNSLKPEDTAVYYCNVRSLVRRSRDYWGQGTQVTVSS

biological target: T1, Human CEACAM6 Protein, Human, …; experiment: phage ELISA, phage-displayed VHH supernatant on coated CEACAM6

Binding result, binds:
B1, B2, B3
